Data on 6 molecules can be found in patent US20230181723A1 (UNIVERSITY OF MARYLAND COLLEGE PARK, published 2023).

Assay [1] deals with T1, human TMEM129 (E3 ligase), endogenous in HeLa cells (human, UniProt A0AVI4 1-362).
T1 construct: whole, on cells; Endogenous protein in HeLa lysates; also called E3 ligase TMEM129
T1 sequence (looked up): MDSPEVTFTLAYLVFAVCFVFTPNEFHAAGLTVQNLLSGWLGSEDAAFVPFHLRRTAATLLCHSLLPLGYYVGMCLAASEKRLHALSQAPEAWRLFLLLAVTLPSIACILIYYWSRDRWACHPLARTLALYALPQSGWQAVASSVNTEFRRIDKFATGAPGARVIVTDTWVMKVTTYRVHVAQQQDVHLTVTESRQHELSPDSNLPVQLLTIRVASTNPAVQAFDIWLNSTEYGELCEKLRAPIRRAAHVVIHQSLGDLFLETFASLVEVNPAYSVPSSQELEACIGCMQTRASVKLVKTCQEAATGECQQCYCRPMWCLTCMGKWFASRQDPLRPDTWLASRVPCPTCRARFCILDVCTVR
The assay can be described thus: immunoprecipitation with anti-TMEM129 from HeLa^FcRn cells transfected with Derlin-1.

For assay [2], the target named is T2, FLAG-tagged human FcRn heavy chain (pcDNA-FLAGFcRn), expressed in HeLa^FcRn cells (human, UniProt P55899 24-365).
T2 construct: whole, on cells; it pairs with endogenous β2m in the cells; also called FcRn HC; WT FcRn
T2 sequence (P55899 other isoform, or with tags, fused parts or gaps): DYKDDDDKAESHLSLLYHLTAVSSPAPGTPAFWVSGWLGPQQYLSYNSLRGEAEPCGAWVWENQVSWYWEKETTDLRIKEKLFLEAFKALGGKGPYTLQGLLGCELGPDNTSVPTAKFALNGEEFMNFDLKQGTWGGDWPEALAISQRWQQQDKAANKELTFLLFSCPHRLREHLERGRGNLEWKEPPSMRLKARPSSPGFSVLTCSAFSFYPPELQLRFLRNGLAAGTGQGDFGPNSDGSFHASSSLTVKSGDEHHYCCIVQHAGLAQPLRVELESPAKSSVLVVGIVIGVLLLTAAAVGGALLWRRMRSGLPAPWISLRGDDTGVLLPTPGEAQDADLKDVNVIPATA
The experiment in a line: probing for interactions in HeLa^FcRn cells transfected with HA-tagged HCMV cDNAs.

Assay [3] concerns the target T2, FLAG-tagged human FcRn heavy chain …. The assay can be described thus: reciprocal co-immunoprecipitation (anti-HA for US2, anti-FLAG for FcRn) from HeLa^FcRn+US2 lysates.
Assay [4] addresses T3, HA-tagged HCMV US11 (pEF6-US11, gene synthesised from HCMV AD169 DNA), expressed in HeLa cells (human cytomegalovirus (AD169 DNA as …, UniProt P09727 18-215)).
T3 construct: Full-length membrane glycoprotein expressed in transfected HeLa cells and tested in CHAPS lysates; also called HCMV glycoprotein US11; wild-type US11
The experiment in a line: immunoprecipitation of US11 from HeLa^US11 cells, blot for Derlin-1.

Assay [5] deals with T3, HA-tagged HCMV US11 (pEF6-US11, gene …). The experiment in a line: reciprocal co-immunoprecipitation (anti-HA, anti-FLAG) from HeLa^HFE+US11 lysates.

B1: Myc-tagged human Derlin-1 (pSectag2-Derlin-1) (other)
chain: SDIGDWFRSIPAITRYWFAATVAVPLVGKLGLISPAYLFLWPEAFLYRFQIWRPITATFYFPVGPGTGFLYLVNLYFLYQYSTRLETGAFDGRPADYLFMLLFNWICIVITGLAMDMQLLMIPLIMSVLYVWAQLNRDMIVSFWFGTRFKACYLPWVILGFNYIIGGSVINELIGNLVGHLYFFLMFRYPMDLGGRNFLSTPQFLYRWLPSRRGGVSGFGVPPASMRRAADQNGGGGRHNWGQGFRLGDQEQKLISEEDL
notes: whole, on cells; Transiently expressed in HeLa transfectants; tested in lysates; also called myc-tagged Derlin-1; Derlin-1 (WT)
For the molecule B1, the binding result in assay [1] is recorded as “binds”.

B2: HA-tagged HCMV UL16, expressed in HeLa^FcRn cells (other)
chain: VDLGSKSSNSTCRLNVTELASIHPGETWTLHGMCISICYYENVTEDEIIGVAFTWQHNESVVDLWLYQNDTVIRNFSDITTNILQDGLKMRTVPVTKLYTSRMVTNLTVGRYDCLRCENGTTKIIERLYVRLGSLYPRPPGSGLAKHPSVSADEELSATLARDIVLVSAITLFFFLLALRIPQRLCQRLRIRLPHRYQRLRTED
notes: whole, on cells
Regarding B2, the binding result in assay [2] is “binds”.

B3: HA-tagged HCMV US2 (pEF6-US2), expressed in HeLa cells (other)
chain: MNNLWKAWVGLWTSMGPLIRLPDGITKAGEDALRPWKSTAKHPWFQIEDNRCYIDNGKLFARGSIVGNMSRFVFDPKADYGGVGENLYVHADDVEFVPGESLKWNVRNLDVMPIFETLALRLVLQGDVIWLRCVPELRVDYTSSAYMWNMQYGMVRKSYTHVAWTIVFYSINITLLVLFIVYVTVDCNLSMMWMRFFVCYPYDVPDYA
notes: whole, on cells; also called HeLa^US2; HeLa^FcRn+US2
For the molecule B3, the binding result in assay [3] was “no binding”.

B4: HA-tagged HCMV US6, expressed in HeLa^FcRn cells (other)
chain: ERSSRDPKTLLSLSPRQQACVPRTKSHRPVCYNDTGDCTDADDSWKQLGEDFAHQCLQAAKKRPKTHKSRPNDRNLEGRLTCQRVRRLLPCDLDIHPSHRLLTLMNNCVCDGAVWNAFRLIERHGFFAVTLYLCCGITLLVVILALLCSITYESTGRGIRRCGS
notes: whole, on cells
Regarding B4, the binding result in assay [2] is recorded as “binds”.

B5: Derlin-1 in HeLa^US11 or HeLa^US11Q192L stable cells (FIG. 16A; no transfection of Derlin-1 stated) (other)
chain: SDIGDWFRSIPAITRYWFAATVAVPLVGKLGLISPAYLFLWPEAFLYRFQIWRPITATFYFPVGPGTGFLYLVNLYFLYQYSTRLETGAFDGRPADYLFMLLFNWICIVITGLAMDMQLLMIPLIMSVLYVWAQLNRDMIVSFWFGTRFKACYLPWVILGFNYIIGGSVINELIGNLVGHLYFFLMFRYPMDLGGRNFLSTPQFLYRWLPSRRGGVSGFGVPPASMRRAADQNGGGGRHNWGQGFRLGDQ
notes: whole, on cells
With B5, the binding result in assay [4] is “binds”.

B6: FLAG-tagged human HFE (hemochromatosis protein), expressed in HeLa^HFE cells (other)
chain: DYKDDDDKRLLRSHSLHYLFMGASEQDLGLSLFEALGYVDDQLFVFYDHESRRVEPRTPWVSSRISSQMWLQLSQSLKGWDHMFTVDFWTIMENHNHSKESHTLQVILGCEMQEDNSTEGYWKYGYDGQDHLEFCPDTLDWRAAEPRAWPTKLEWERHKIRARQNRAYLERDCPAQLQQLLELGRGVLDQQVPPLVKVTHHVTSSVTTLRCRALNYYPQNITMKWLKDKQPMDAKEFEPKDVLPNGDGTYQGWITLAVPPGEEQRYTCQVEHPGLDQPLIVIWEPSPSGTLVIGVISGIAVFVVILFIGILFIILRKRQGSRGAMGHYVLAERE
notes: whole, on cells; Specificity control with an MHC class I-like structure; also called HEF; HeLa^HFE+US11
Consider B6, for which the binding result in assay [5] was “no binding”.
